Reference: US12497460B2, “Anti-MSR1 antibodies and methods of use thereof” (REGENERON PHARMACEUTICALS, INC., priority 2018, dated 2025)
Changes are numbered by the printed parent chain. In names and notes the source's numbering stands.

T1: biot-AGE-BSA binding to His9-hMSR1 (Homo sapiens, UniProt P21757)
T1 construct: human MSR1 extracellular domain expressed with a N-terminal nonahistidine tag; His9 (nonahistidine) (N); purchased R&D Systems 2708-MS
T1 sequence (P21757 77-451 limits assumed): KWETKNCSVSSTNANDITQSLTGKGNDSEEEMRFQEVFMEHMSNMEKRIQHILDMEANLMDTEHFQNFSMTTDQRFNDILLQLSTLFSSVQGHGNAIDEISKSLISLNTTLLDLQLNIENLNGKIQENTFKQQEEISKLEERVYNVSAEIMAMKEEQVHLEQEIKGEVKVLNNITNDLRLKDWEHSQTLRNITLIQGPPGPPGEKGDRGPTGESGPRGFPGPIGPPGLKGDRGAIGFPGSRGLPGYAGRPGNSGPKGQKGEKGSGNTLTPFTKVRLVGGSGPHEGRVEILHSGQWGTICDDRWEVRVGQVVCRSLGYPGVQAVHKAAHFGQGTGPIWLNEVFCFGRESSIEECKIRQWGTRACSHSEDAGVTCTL

T2: Ac-LDL binding to His9-hMSR1 (Homo sapiens, UniProt P21757)
T2 construct: human MSR1 extracellular domain expressed with a N-terminal nonahistidine tag; His9 (nonahistidine) (N); purchased R&D Systems 2708-MS
T2 sequence (P21757 77-451 limits assumed): T1 sequence (P21757 77-451 limits assumed)

B1: H1H21227N-N297Q: "modified versions of 21227N (H1H21227N-N297Q and H1H21227N-N297D)"; anti-MSR1 antibody "with a N297Q single point mutation" (antibody, V domains shown)
VH: QVQLVQSGAEVKKPGASVKVSCKVSGYTLTELSIHWVRQVPGKGLEWMGGFDPEEGETIFAQEFRDRVTLTEDTSPDTAYMELSSLKSEDAAVYYCTTPRYCNNGICYDYWGQGTLVTVSS
VL: DIQMTQSPSSLSASVGDRVTITCRASQSISNYLNWYQQKPGKAPKLLIYTASSLQSGVPSRFSGSGSGTDFTLTISSLQTEDFATYYCQQSYSNFPITFGQGTRLEIKR
B2: H1H21227N-N297D: "The 21227N antibody was also produced as a third version with a N297D mutation" (antibody, V domains shown)
VH: B1 VH
VL: B1 VL
B3: H1H21231N-N297Q: modified version of "21231N (H1H21231N-N297Q) anti-MSR1 antibodies" with "a N297Q single point mutation" (antibody, V domains shown)
VH: EVQLVESGGGLVQPGGSLRLSCAASGFTFSDHYMDWVRQAPGKGLEWVGRTRNKANSHTTEYTASVTGRFTISRDDSRNSLYLQMNSLKTEDTAVYYCVRAGIIGTLFDYWGQGTLVTVSS
VL: B1 VL with S7F, N31S, Y32F, Y36F, L46F, T50A, T80P, N94S, F95P
B4: H1H21231N: "anti-MSR1 antibodies ... (21227N, 21231N, 21234N) were produced with the original human Fcγ portion"; "H1H" = human IgG1 Fc (antibody, V domains shown)
VH: B3 VH
VL: B1 VL with S7F, N31S, Y32F, Y36F, L46F, T50A, T80P, N94S, F95P
modifications: human IgG1 Fc
notes: "anti-MSR1 antibodies ; (21227N, 21231N, 21234N) were produced with the original human Fcγ portion"; "H1H" = human IgG1 Fc
B5: H1H21227N: "anti-MSR1 antibodies ... (21227N, 21231N, 21234N) were produced with the original human Fcγ portion"; "H1H" = human IgG1 Fc (antibody, V domains shown)
VH: B1 VH
VL: B1 VL
modifications: human IgG1 Fc
notes: as for B4

These molecules were tested against T1, biot-AGE-BSA binding to His9-hMSR1 (assay: Competition sandwich ELISA, blocking of biot-AGE-BSA binding). Conditions: 400 pM biot-AGE-BSA.
Method: (§1) The ability of anti-MSR1 antibodies disclosed herein to block the binding of various ligands to human MSR1 was measured using three competition sandwich ELISA assays. The ligands used in the assays were: (1) acetylated LDL (Ac-LDL), (2) oxidized LDL (Ox-LDL), and (3) advanced glycation end-products of bovine serum albumin (AGE-BSA).
For the assay, recombinant monomeric human MSR1 protein comprised of a portion of the human MSR1 extracellular domain expressed with a N-terminal 9-Histidine tag (His9-hMSR1; R&D Systems, Cat #2708-MS) was coated at a concentration of 2 μg/mL in PBS on a 96-well microtiter plate overnight at 4° C. for use in competition ELISA assays with Ac-LDL, Ox-LDL, or biotinylated-AGE-BSA (“biot-AGE-BSA”). […] Anti-MSR1 antibodies or isotype control antibodies were serially diluted as appropriate for each tested ligand and added in duplicate for each serial dilution set to microtiter plates coated with His9-hMSR1. Buffer alone was also added to wells on each coat. After 1 hour incubation at room temperature, without wash, a final constant concentration of 50 pM Ac-LDL (Life Technologies/ThermoFisher Scientific, Cat #L-35354), 5 nM or 10 nM Ox-LDL (Alfa Aesar, Cat #J65591), or 400 pM biot-AGE-BSA (R&D Systems, Cat #BT4127) were added to plates with His9-hMSR1, and the plates were incubated for an additional 1 hour at room temperature. (Concentrations of Ac-LDL, Ox-LDL and biot-AGE-BSA for antibody inhibition assays were selected from the approximate midway point within the linear portion of individual binding curves of Ac-LDL, Ox-LDL or biot-AGE-BSA to plate-coated His9-hMSR1.) Wells were washed, and plate-bound Ac-LDL or Ox-LDL were detected with anti-LDL rabbit antibody (Alfa Aesar, Cat #J64398) in combination with anti-rabbit IgG (H+L) specific donkey polyclonal antibodies conjugated with horseradish peroxidase (HRP) (JacksonImmunoResearch, Cat #711-035-152) and biot-AGE-BSA was detected with a streptavidin-HRP (ThermoFisher Scientific, Cat #N200). Plates were developed using TMB substrate solution (BD Biosciences, Cat #51-2606KC & Cat #51-2607KC) according to manufacturer's recommendation and absorbance at 450 nm was measured on a Victor™ Multilabel Plate Reader (PerkinElmer™). This assay was conducted in four different assay runs.
(§2) Data analysis was performed using a sigmoidal dose-response model within Prism™ software (GraphPad). Percent blockade at maximum concentration of the antibody tested in each assay was calculated as an indicator of the ability of the antibodies to block the binding of Ac-LDL, Ox-LDL or biot-AGE-BSA to His9-hMSR1 on the plate relative to the baseline of the assay. In the calculation, binding signal of the same concentrations of Ac-LDL, Ox-LDL, or biot-AGE-BSA used for the assays in the absence of antibody was referenced as 100% binding or 0% blocking, while the baseline of the assay, defined as binding signal of the sample of buffer without MSR1 ligands or antibody, was referenced as 0% binding or 100% blocking. The maximum percent blockade at the highest concentration of antibody tested in each assay are reported for all antibodies. Negative percent blockade numbers reflected higher MSR1 ligands binding to plate coated His9-hMSR1 in the presence of antibodies.

Molecule	Anti-MSR1 antibody (300 nM) blocking of biot-AGE-BSA binding to His9-hMSR1 % Blocking
B1	96%
B2	97%
B3	−50%
B4	−44%
B5	99%

These molecules were tested against T2, Ac-LDL binding to His9-hMSR1 (assay: Competition sandwich ELISA, blocking of Ac-LDL binding). Conditions: 50 pM Ac-LDL.
Method: as §1
Anti-MSR1 antibodies or isotype control antibodies were serially diluted as appropriate for each tested ligand and added in duplicate for each serial dilution set to microtiter plates coated with His9-hMSR1. Buffer alone was also added to wells on each coat. […] This assay was conducted in four different assay runs.
as §2, with “antibodies.” for “antibodies. Negative percent blockade numbers reflected higher MSR1 ligands binding to plate coated His9-hMSR1 in the presence of antibodies.”

Molecule	Anti-MSR1 antibody (100 nM) blocking of Ac-LDL binding to His9-hMSR1 % Blocking
B1	105%
B2	101%
B3	−60%
B4	−62%
B5	105%
